Data reported in IntAct's records for PubMed 20098421.

B1: Trinucleotide repeat-containing gene 6C protein (Homo sapiens), Q9HCJ0-1 (parent)
chain: MATGSAQGNFTGHTKKTNGNNGTNGALVQSPSNQSALGAGGANSNGSAARVWGVATGSSSGLAHCSVSGGDGKMDTMIGDGRSQNCWGASNSNAGINLNLNPNANPAAWPVLGHEGTVATGNPSSICSPVSAIGQNMGNQNGNPTGTLGAWGNLLPQESTEPQTSTSQNVSFSAQPQNLNTDGPNNTNPMNSSPNPINAMQTNGLPNWGMAVGMGAIIPPHLQGLPGANGSSVSQVSGGSAEGISNSVWGLSPGNPATGNSNSGFSQGNGDTVNSALSAKQNGSSSAVQKEGSGGNAWDSGPPAGPGILAWGRGSGNNGVGNIHSGAWGHPSRSTSNGVNGEWGKPPNQHSNSDINGKGSTGWESPSVTSQNPTVQPGGEHMNSWAKAASSGTTASEGSSDGSGNHNEGSTGREGTGEGRRRDKGIIDQGHIQLPRNDLDPRVLSNTGWGQTPVKQNTAWEFEESPRSERKNDNGTEAWGCAATQASNSGGKNDGSIMNSTNTSSVSGWVNAPPAAVPANTGWGDSNNKAPSGPGVWGDSISSTAVSTAAAAKSGHAWSGAANQEDKSPTWGEPPKPKSQHWGDGQRSNPAWSAGGGDWADSSSVLGHLGDGKKNGSGWDADSNRSGSGWNDTTRSGNSGWGNSTNTKANPGTNWGETLKPGPQQNWASKPQDNNVSNWGGAASVKQTGTGWIGGPVPVKQKDSSEATGWEEPSPPSIRRKMEIDDGTSAWGDPSNYNNKTVNMWDRNNPVIQSSTTTNTTTTTTTTTSNTTHRVETPPPHQAGTQLNRSPLLGPGRKVSSGWGEMPNVHSKTENSWGEPSSPSTLVDNGTAAWGKPPSSGSGWGDHPAEPPVAFGRAGAPVAASALCKPASKSMQEGWGSGGDEMNLSTSQWEDEEGDVWNNAASQESTSSCSSWGNAPKKGLQKGMKTSGKQDEAWIMSRLIKQLTDMGFPREPAEEALKSNNMNLDQAMSALLEKKVDVDKRGLGVTDHNGMAAKPLGCRPPISKESSVDRPTFLDKDGGLVEEPTPSPFLPSPSLKLPLSHSALPSQALGGIASGLGMQNLNSSRQIPSGNLGMFGNSGAAQARTMQQPPQPPVQPLNSSQPSLRAQVPQFLSPQVQAQLLQFAAKNIGLNPALLTSPINPQHMTMLNQLYQLQLAYQRLQIQQQMLQAQRNVSGSMRQQEQQVARTITNLQQQIQQHQRQLAQALLVKQPPPPPPPPHLSLHPSAGKSAMDSFPSHPQTPGLPDLQTKEQQSSPNTFAPYPLAGLNPNMNVNSMDMTGGLSVKDPSQSQSRLPQWTHPNSMDNLPSAASPLEQNPSKHGAIPGGLSIGPPGKSSIDDSYGRYDLIQNSESPASPPVAVPHSWSRAKSDSDKISNGSSINWPPEFHPGVPWKGLQNIDPENDPDVTPGSVPTGPTINTTIQDVNRYLLKSGGKLSDIKSTWSSGPTSHTQASLSHELWKVPRNSTAPTRPPPGLTNPKPSSTWGASPLGWTSSYSSGSAWSTDTSGRTSSWLVLRNLTPQIDGSTLRTLCLQHGPLITFHLNLTQGNAVVRYSSKEEAAKAQKSLHMCVLGNTTILAEFAGEEEVNRFLAQGQALPPTSSWQSSSASSQPRLSAAGSSHGLVRSDAGHWNAPCLGGKGSSELLWGGVPQYSSSLWGPPSADDSRVIGSPTPLTTLLPGDLLSGESL
B2: Trinucleotide repeat-containing gene 6C protein (Homo sapiens), Q9HCJ0 (parent)
chain: MEEKKKKKQEEKKKKEGAQKKAADQKTKVPEPTKTCSSQPQPAGTSTSTSTSTISSSNNGKRASASGQQPAASRYLPREVPPRFRQQEQKQLLKRGQPLPTGTLTSVSPTQGAGPAGVSPPPLPGAGTQHHPSKLQPDLSHSGLADHYENSHWGQQPTYRSEANCSWDKVIIDRTDKEAWPSITGTETESASECTTDTDSASNCGSENSSMATGSAQGNFTGHTKKTNGNNGTNGALVQSPSNQSALGAGGANSNGSAARVWGVATGSSSGLAHCSVSGGDGKMDTMIGDGRSQNCWGASNSNAGINLNLNPNANPAAWPVLGHEGTVATGNPSSICSPVSAIGQNMGNQNGNPTGTLGAWGNLLPQESTEPQTSTSQNVSFSAQPQNLNTDGPNNTNPMNSSPNPINAMQTNGLPNWGMAVGMGAIIPPHLQGLPGANGSSVSQVSGGSAEGISNSVWGLSPGNPATGNSNSGFSQGNGDTVNSALSAKQNGSSSAVQKEGSGGNAWDSGPPAGPGILAWGRGSGNNGVGNIHSGAWGHPSRSTSNGVNGEWGKPPNQHSNSDINGKGSTGWESPSVTSQNPTVQPGGEHMNSWAKAASSGTTASEGSSDGSGNHNEGSTGREGTGEGRRRDKGIIDQGHIQLPRNDLDPRVLSNTGWGQTPVKQNTAWEFEESPRSERKNDNGTEAWGCAATQASNSGGKNDGSIMNSTNTSSVSGWVNAPPAAVPANTGWGDSNNKAPSGPGVWGDSISSTAVSTAAAAKSGHAWSGAANQEDKSPTWGEPPKPKSQHWGDGQRSNPAWSAGGGDWADSSSVLGHLGDGKKNGSGWDADSNRSGSGWNDTTRSGNSGWGNSTNTKANPGTNWGETLKPGPQQNWASKPQDNNVSNWGGAASVKQTGTGWIGGPVPVKQKDSSEATGWEEPSPPSIRRKMEIDDGTSAWGDPSNYNNKTVNMWDRNNPVIQSSTTTNTTTTTTTTTSNTTHRVETPPPHQAGTQLNRSPLLGPVSSGWGEMPNVHSKTENSWGEPSSPSTLVDNGTAAWGKPPSSGSGWGDHPAEPPVAFGRAGAPVAASALCKPASKSMQEGWGSGGDEMNLSTSQWEDEEGDVWNNAASQESTSSCSSWGNAPKKGLQKGMKTSGKQDEAWIMSRLIKQLTDMGFPREPAEEALKSNNMNLDQAMSALLEKKVDVDKRGLGVTDHNGMAAKPLGCRPPISKESSVDRPTFLDKDGGLVEEPTPSPFLPSPSLKLPLSHSALPSQALGGIASGLGMQNLNSSRQIPSGNLGMFGNSGAAQARTMQQPPQPPVQPLNSSQPSLRAQVPQFLSPQVQAQLLQFAAKNIGLNPALLTSPINPQHMTMLNQLYQLQLAYQRLQIQQQMLQAQRNVSGSMRQQEQQVARTITNLQQQIQQHQRQLAQALLVKQPPPPPPPPHLSLHPSAGKSAMDSFPSHPQTPGLPDLQTKEQQSSPNTFAPYPLAGLNPNMNVNSMDMTGGLSVKDPSQSQSRLPQWTHPNSMDNLPSAASPLEQNPSKHGAIPGGLSIGPPGKSSIDDSYGRYDLIQNSESPASPPVAVPHSWSRAKSDSDKISNGSSINWPPEFHPGVPWKGLQNIDPENDPDVTPGSVPTGPTINTTIQDVNRYLLKSGGSSPPSSQNATLPSSSAWPLSASGYSSSFSSIASAPSVAGKLSDIKSTWSSGPTSHTQASLSHELWKVPRNSTAPTRPPPGLTNPKPSSTWGASPLGWTSSYSSGSAWSTDTSGRTSSWLVLRNLTPQIDGSTLRTLCLQHGPLITFHLNLTQGNAVVRYSSKEEAAKAQKSLHMCVLGNTTILAEFAGEEEVNRFLAQGQALPPTSSWQSSSASSQPRLSAAGSSHGLVRSDAGHWNAPCLGGKGSSELLWGGVPQYSSSLWGPPSADDSRVIGSPTPLTTLLPGDLLSGESL

Variants of: B1
Conditions: with pabp1_human PABPC1, P11940
Target sequence in this assay (P11940 whole entry): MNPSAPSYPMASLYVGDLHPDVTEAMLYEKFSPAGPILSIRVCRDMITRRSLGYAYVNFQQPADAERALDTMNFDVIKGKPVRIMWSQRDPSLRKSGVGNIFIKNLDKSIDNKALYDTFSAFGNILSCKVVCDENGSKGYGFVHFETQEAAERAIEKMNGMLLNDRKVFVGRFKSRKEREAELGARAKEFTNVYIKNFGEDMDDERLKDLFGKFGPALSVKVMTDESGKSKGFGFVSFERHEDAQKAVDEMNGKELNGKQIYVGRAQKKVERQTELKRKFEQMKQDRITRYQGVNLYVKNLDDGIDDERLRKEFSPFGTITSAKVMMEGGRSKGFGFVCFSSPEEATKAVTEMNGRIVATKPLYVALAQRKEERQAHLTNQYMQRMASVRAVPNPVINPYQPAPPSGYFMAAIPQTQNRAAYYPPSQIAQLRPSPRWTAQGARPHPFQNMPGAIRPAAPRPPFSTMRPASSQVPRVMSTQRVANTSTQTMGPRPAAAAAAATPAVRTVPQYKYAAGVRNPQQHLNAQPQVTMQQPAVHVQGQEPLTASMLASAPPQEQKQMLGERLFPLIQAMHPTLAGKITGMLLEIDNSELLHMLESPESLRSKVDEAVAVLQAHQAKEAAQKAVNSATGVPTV

effect of a mutation on the interaction	Variant
disrupting interaction	E1388A;F1389A;W1395A;K1396A

Variants of: B2
Conditions: with pabp1_human PABPC1, P11940
Target sequence in this assay (P11940 whole entry): as above

effect of a mutation on the interaction	Variant
disrupting interaction	W1602A;K1603A
disrupting interaction	E1595A;F1596A
